± gives the uncertainty stated by the source.

This data set can be described thus: amyloid nucleation score (Sup35N fusion, yeast selection) (log enrichment); library NNK2; higher = more nucleation; inactive = no reads after selection. An outline of the steps: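 Peptides of 20 random codons, each fused to Sup35N, were expressed in psi-negative yeast. Cells were induced with 100 μM copper sulfate for 24 hours and grown 7 days at 30°C on medium lacking adenine and uracil, and plasmid inserts before and after selection were Illumina-sequenced. Nucleation scores are DiMSum log enrichments of output over input reads, centred on the mode score of non-aggregating sequences, and sequences under 100 input reads were excluded.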
Take KNYHCTLSWLWFMACFSGIP: the amyloid nucleation score is 2.61 ± 0.15.
Then DIFALYFA, with -1.16 ± 0.63.
The same measure for RIMISSIELDNCWYILGLSA: “inactive”.
LYVFLLCNITLTSPLFNLLF had an amyloid nucleation score of 3.92 ± 0.1.
The same measure for LTRGTFRIQCTLTSAWRVAR: 4.62 ± 0.11; for FSSEIRTLGQELVFGVISKA: -0.307 ± 0.76.
Turning to LLQILTNQKVNGTCSQRF, the amyloid nucleation score is -1.48 ± 0.78.
Then SCGMFESPAVYGYSARLSRL, with “inactive”.
Then ELLYWCANHDAGIVRVEFWW, with 1.48 ± 0.1.
In turn, GVLKVLLLAPISFTVVCHSS registered an amyloid nucleation score of 3.65 ± 0.055.
Then NIYNPVD, with -0.196 ± 1.1.
Then KINCLFISLGNRSRVVRTS, with 0.681 ± 0.37; and SMGVGTAVTCRTLVVLDGSC, with 0.741 ± 0.37.
The same measure for IIVCVSGIYLSMSQ: 6.007 ± 0.035.
Take WVGHFIDISDATGRPWHMKA: the amyloid nucleation score was -0.107 ± 0.53.
Then LLSNFGHVRNSSDKLLLFWS, with 2.9 ± 0.18; and IRCCTYFAALSILLAPIKAG, with 0.322 ± 0.27.
The same measure for VLPRYN: 0.471 ± 0.62; for FYCMKQLLNNIRWLGYSVCR: -1.28 ± 1.1; for GLSIGYSKWETALGITLSNP: -0.864 ± 0.78.
As to IFHRLKDLT, the amyloid nucleation score is -1.24 ± 0.48.
Then FSLSCM, with “inactive”.
Then HRGNTCTGSRCRLADRRHPS, with 1.79 ± 0.18; and CFTPFMLFCKDEV, with -1.12 ± 0.55.
The same measure for ETEGKGRWKD: “inactive”.
In the case of TDSAFLCHIAWTPFTVH, the amyloid nucleation score amounted to 0.866 ± 0.48.
Then WNKFNICFKGKAW, with 0.123 ± 0.5; and PDSYGNFHHSSYNHDHNLVH, with “inactive”; and RMGSYDVNRNSFFKCSGRVS, with -0.864 ± 0.78.
Turning to PCYGYQR, the amyloid nucleation score is -0.024 ± 0.65.
Then CWFYVMGLWHVLLLCWS, with “inactive”; and NEQIW, with 0.023 ± 0.39; and GLPFLVESMSCPCDLDTVGW, with 2.27 ± 0.23.
Then WMYGWERSRVYDGNIVDRRW, with 0.035 ± 1.
Then LFWDLSY, with -0.959 ± 0.36; and YWGNYLRSFIYVVTSWSHVF, with “inactive”; and ISDMS, with -0.416 ± 0.28.
Substance GFSVRVGVMTFDSFDWRVLF showed an amyloid nucleation score of 1.72 ± 0.15.
The same measure for SRMVDR: 0.345 ± 0.45; for PPYALDVTFVMRPKLSSR: 1.21 ± 0.23.
Then LTVTDG, with 0.104 ± 0.37; and ALCYWRNSPSVGRRQWRRQC, with 6.654 ± 0.057; and SCKNMGHVWFIVDVHHNRRL, with “inactive”.
The same measure for KAEHVFFVYRGLTEVFASGL: “inactive”.
LANRPCWFLQRARAMV yielded an amyloid nucleation score of 0.959 ± 0.74.
Then ELQRKNTGLKVDLKAHIHRF, with 5.37 ± 0.063; and PGEGMSQEERLMLCRCVWVT, with 0.874 ± 0.52; and TYSVLRHFRRES, with 0.589 ± 0.31.
Then YNAVA, with “inactive”.
The same measure for LWLPQFEDCSREHTCEFLAI: 0.237 ± 0.56; for TDLTQF: -0.375 ± 1.1; for SPQRFDLGYGVYVCDTPK: -0.231 ± 0.38.
For QSTMDCT, the amyloid nucleation score came to 0.082 ± 1.1.
Turning to SLEGYKLDAQRRFKMVCEMV, the amyloid nucleation score was -0.267 ± 0.33.
VSSWGMYYWFS: the amyloid nucleation score came to 0.06 ± 0.44.
Then WYVLFSMMWA, with -1.36 ± 0.78; and IHRILCHGVRASMLGGSVAL, with 0.067 ± 0.79.
Then APRCALQLGS, with 1.27 ± 0.28; and VGSKWLNGSRGKRLELRIGR, with 4.03 ± 0.12.
NVFVLFVHRVVGQELAELLG registered an amyloid nucleation score of 4.58 ± 0.065.
Take NVDQEMDYDYERIGFLPIGT: the amyloid nucleation score was -0.204 ± 0.33.
Regarding ISEIQDLLGSALTH, the amyloid nucleation score worked out at 2.09 ± 0.079.
Then VLFCT, with -1.29 ± 0.61; and SIVSTGFVRDLNRTRCYSGG, with 0.158 ± 0.56.
As for CKMYVET, the amyloid nucleation score is 0.23 ± 0.38.
Then QIPNILVGNDMICVKKVLNW, with 2.97 ± 0.051; and KALAYAWLCISLYKDFGYYN, with “inactive”.
As for MLRQYCASFALVRCLNVTDR, the amyloid nucleation score is 3.12 ± 0.13.
Then SAYLPSHLYTAFEPHGLVST, with 0.933 ± 0.2; and NVNGLLSTN, with -0.172 ± 0.76; and TMYRYASFKADLSDFKAAYE, with 0.524 ± 0.81.
Then VYRLTRVISEWRSILVLVWT, with 0.328 ± 0.42.
On to KNSYNVPEYLRLLLWGNGMC, for which the amyloid nucleation score entry was “inactive”.
The same measure for CCSISTDLCDKYFVTFCLLS: “inactive”; for NLDDYYDNILFTAMR: 0.201 ± 0.54; for HPSFLRIWDYIRSKFNSVHR: “inactive”.
With LMNMSSRSTQCNNQG, the amyloid nucleation score is -0.139 ± 0.55.
On to CMSTDTTLVATMMLQTESA, for which the amyloid nucleation score was determined as 0.441 ± 0.23.
Then PHLFRPGTADVLYHYMTMRK, with 0.628 ± 0.37; and LLSWVHR, with -0.357 ± 0.5.
Take KRIPSSWWFVGLVGITWRPA: the amyloid nucleation score is 0.826 ± 0.29.
The same measure for SQWDKTVT: -0.986 ± 0.55; for VNSVMARMITCTSVVGCKYW: -0.259 ± 0.19; for WALLGFLDYKLFLTAEVFSA: -0.498 ± 1.1.
Then SHVCYSRNIH, with 1.06 ± 0.26; and RFCRVDKWEVRQGM, with 5.339 ± 0.051; and IGLVVFSAL, with 2.56 ± 0.11.
The same measure for SLTSGRLYEIIIRIYHASFM: -1.46 ± 0.34; for ACWKRMN: “inactive”; for DDFRQVKREDWHWSLSAVLF: 0.36 ± 0.62.
Take KSCAVFYSSNYVSGSNYLFF: the amyloid nucleation score came to 6.369 ± 0.047.
The same measure for YRFHSTKRCINSGDNC: -0.14 ± 1.
Then CANIMMKSKVYKFNERRSVK, with -0.873 ± 0.62; and VLICFVSLRLKVGTLIPTTT, with -0.37 ± 0.76.
The same measure for PRRMNRGYQNDYFISTVFSV: -0.711 ± 0.64; for DGSDREPKVSALWLHVRRTA: 2.17 ± 0.13.
In turn, TCARSVYDNLSLINLTRG displayed an amyloid nucleation score of 1.73 ± 0.1.
As to ANAKIYGNMEALETGMRL, the amyloid nucleation score came out at 0.553 ± 0.57.
The same measure for DTPITDCELPAYFQVITNWL: 0.007 ± 0.76; for NLGCPYCISVGC: 0.649 ± 0.42; for SLGRGPYDRNMIVFMMRELT: -0.682 ± 0.64.
For ITYNTS, the amyloid nucleation score was 0.936 ± 0.44.
Then LGTFKGKSEGPVV, with 0.616 ± 0.64; and LAKGPSQDYGAVPHKVMFHS, with 0.961 ± 0.58.

Values taken from the supplement of paper PMC12042874.
